According to patent US20230167164A1 (IMMUNOWAKE, published 2023):
Positions count from the first letter of the chain named. Names and notes keep the numbering of the source.

T1: human IL-2 receptor (human, UniProt P01589 22-272; P14784 27-551; P31785 23-369)
T1 sequence (looked up) 1: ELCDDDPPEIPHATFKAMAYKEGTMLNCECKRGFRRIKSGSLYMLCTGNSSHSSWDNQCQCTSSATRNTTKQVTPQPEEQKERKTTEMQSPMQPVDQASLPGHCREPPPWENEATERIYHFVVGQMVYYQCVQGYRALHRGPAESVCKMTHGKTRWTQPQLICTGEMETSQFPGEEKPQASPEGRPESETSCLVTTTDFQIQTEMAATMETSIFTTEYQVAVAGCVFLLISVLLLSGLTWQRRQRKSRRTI
T1 sequence (looked up) 2: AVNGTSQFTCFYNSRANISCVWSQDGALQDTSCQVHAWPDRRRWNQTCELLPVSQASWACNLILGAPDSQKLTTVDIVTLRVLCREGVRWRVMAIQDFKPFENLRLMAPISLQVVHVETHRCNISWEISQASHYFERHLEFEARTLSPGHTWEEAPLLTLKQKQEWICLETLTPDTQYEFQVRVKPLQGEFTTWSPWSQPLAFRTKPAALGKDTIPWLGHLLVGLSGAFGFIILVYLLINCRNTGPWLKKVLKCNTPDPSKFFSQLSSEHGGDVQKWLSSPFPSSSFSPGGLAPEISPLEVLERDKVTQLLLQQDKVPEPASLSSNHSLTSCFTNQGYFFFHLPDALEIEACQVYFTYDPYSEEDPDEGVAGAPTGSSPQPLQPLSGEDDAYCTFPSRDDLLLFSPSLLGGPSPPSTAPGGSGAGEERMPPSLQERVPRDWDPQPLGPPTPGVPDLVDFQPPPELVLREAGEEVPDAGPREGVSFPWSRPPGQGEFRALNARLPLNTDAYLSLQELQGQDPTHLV
T1 sequence (looked up) 3: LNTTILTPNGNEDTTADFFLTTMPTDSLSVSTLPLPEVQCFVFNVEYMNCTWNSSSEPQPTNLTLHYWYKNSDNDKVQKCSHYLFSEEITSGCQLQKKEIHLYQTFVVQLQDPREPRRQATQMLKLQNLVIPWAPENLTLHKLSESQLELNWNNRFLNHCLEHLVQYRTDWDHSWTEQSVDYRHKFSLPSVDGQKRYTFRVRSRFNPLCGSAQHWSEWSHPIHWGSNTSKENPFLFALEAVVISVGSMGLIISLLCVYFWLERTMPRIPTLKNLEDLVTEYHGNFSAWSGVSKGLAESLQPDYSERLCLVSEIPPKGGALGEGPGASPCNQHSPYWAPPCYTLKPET

B1: Fab-IL-12(WT)-Fc-CD4 Ab (other)
heavy 1: QVQLQQSGPEVVKPGASVKMSCKASGYTFTSYVIHWVRQKPGQGLDWIGYINPYNDGTDYDEKFKGKATLTSDTSTSTAYMELSSLRSEDTAVYYCAREKDNYATGAWFAYWGQGTLVTVSSASTKGPSVFPLAPSSKSTSGGTAALGCLVKDYFPEPVTVSWNSGALTSGVHTFPAVLQSSGLYSLSSVVTVPSSSLGTQTYICNVNHKPSNTKVDKKVEPKSCDKPGSGIWELKKDVYVVELDWYPDAPGEMVVLTCDTPEEDGITWTLDQSSEVLGSGKTLTIQVKEFGDAGQYTCHKGGEVLSHSLLLLHKKEDGIWSTDILKDQKEPKNKTFLRCEAKNYSGRFTCWWLTTISTDLTFSVKSSRGSSDPQGVTCGAATLSAERVRGDNKEYEYSVECQEDSACPAAEESLPIEVMVDAVHKLKYENYTSSFFIRDIIKPDPPKNLQLKPLKNSRQVEVSWEYPDTWSTPHSYFSLTFCVQVQGKSKREKKDRVFTDKTSATVICRKNASISVRAQDRYYSSSWSEWASVPCSGGGGSGGGGSGGGGSGGGGSGRNLPVATPDPGMFPCLHHSQNLLRAVSNMLQKARQTLEFYPCTSEEIDHEDITKDKTSTVEACLPLELTKNESCLNSRETSFITNGSCLASRKTSFMMALCLSSIYEDLKMYQVEFKTMNAKLLMDPKRQIFLDQNMLAVIDELMQALNFNSETVPQKSSLEEPDFYKTKIKLCILLHAFRIRAVTIDRVMSYLNASDKTHTCPPCPAPEDEGGPSVFLFPPKPKDTLMISRTPEVTCVVVDVSHEDPEVKFNWYVDGVEVHNAKTKPREEQYNSTYRVVSVLTVLHQDWLNGKEYKCKVSNKALPAPIEKTISKAKGQPREPQVYVYPPSREEMTKNQVSLTCLVKGFYPSDIAVEWESNGQPENNYKTTPPVLDEDGSFALVSKLTVDKSRWQQGNVFSCSVMHEALHNHYTQKSLSLSPGK
heavy 2: QVQLQQSGPEVVKPGASVKMSCKASGYTFTSYVIHWVRQKPGQGLDWIGYINPYNDGTDYDEKFKGKATLTSDTSTSTAYMELSSLRSEDTAVYYCAREKDNYATGAWFAYWGQGTLVTVSSASTKGPSVFPLAPSSKSTSGGTAALGCLVKDYFPEPVTVSWNSGALTSGVHTFPAVLQSSGLYSLSSVVTVPSSSLGTQTYICNVNHKPSNTKVDKKVEPKSCDKTHTCPPCPAPEKKGGPSVFLFPPKPKDTLMISRTPEVTCVVVDVSHEDPEVKFNWYVDGVEVHNAKTKPREEQYNSTYRVVSVLTVLHQDWLNGKEYKCKVSNKALPAPIEKTISKAKGQPREPQVYVLPPSREEMTKNQVSLLCLVKGFYPSDIAVEWESNGQPENRYMTWPPVLDSDGSFFLYSKLTVDKSRWQQGNVFSCSVMHEALHNHYTQKSLSLSPGK
light: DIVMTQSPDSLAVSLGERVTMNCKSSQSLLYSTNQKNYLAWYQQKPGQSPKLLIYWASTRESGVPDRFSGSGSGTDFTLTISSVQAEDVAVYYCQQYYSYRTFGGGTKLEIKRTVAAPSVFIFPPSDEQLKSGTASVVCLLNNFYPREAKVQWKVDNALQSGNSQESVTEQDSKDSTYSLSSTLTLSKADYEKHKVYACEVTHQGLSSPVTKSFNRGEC
B2: Fab-IL-12(E59A/F60A)-Fc-CD4 Ab (other)
heavy 1: B1 heavy 1 with E290A, F291A
heavy 2: B1 heavy 2
light: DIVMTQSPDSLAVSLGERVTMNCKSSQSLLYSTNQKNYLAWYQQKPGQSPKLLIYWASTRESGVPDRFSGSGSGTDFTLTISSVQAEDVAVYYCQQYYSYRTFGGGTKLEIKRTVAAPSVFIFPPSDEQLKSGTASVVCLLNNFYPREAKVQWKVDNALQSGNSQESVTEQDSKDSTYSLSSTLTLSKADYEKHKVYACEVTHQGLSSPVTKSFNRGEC
B3: Fab-IL-12(E59A)-Fc-CD4 Ab (other)
heavy 1: B1 heavy 1 with E290A
heavy 2: B1 heavy 2
light: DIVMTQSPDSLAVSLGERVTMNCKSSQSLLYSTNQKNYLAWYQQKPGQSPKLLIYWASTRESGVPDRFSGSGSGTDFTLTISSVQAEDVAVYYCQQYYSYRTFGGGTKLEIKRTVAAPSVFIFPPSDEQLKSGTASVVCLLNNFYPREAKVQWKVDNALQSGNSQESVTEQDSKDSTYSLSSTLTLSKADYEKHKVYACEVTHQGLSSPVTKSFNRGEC
B4: IL-2(L18R/Q22E/R38D/K43E/E61R)/IL-12(E59A/F60A)/PD-L1(mut2)-Fc (Fc fusion)
chain 1: FTVTVPKDLYVVEYGSNMTIECKFPVEKQLDLAALQVYWMMEDKNIIQFVHGEEDLKVQHSSYRQRARLLKDQLSLGNAALQITDVKLQDAGVYTCLIAYKGADYKRITVKVNAPYNKINQRILVVDPVTSEHELTCQAEGYPKAEVIWTSSDHQVLSGKTTTTNSKREEKLFNVTSTLRINTTTNEIFYCTFRRLDPEENHTAELVIPELPLAHPPNERGGGGSGGGIWELKKDVYVVELDWYPDAPGEMVVLTCDTPEEDGITWTLDQSSEVLGSGKTLTIQVKAAGDAGQYTCHKGGEVLSHSLLLLHKKEDGIWSTDILKDQKEPKNKTFLRCEAKNYSGRFTCWWLTTISTDLTFSVKSSRGSSDPQGVTCGAATLSAERVRGDNKEYEYSVECQEDSACPAAEESLPIEVMVDAVHKLKYENYTSSFFIRDIIKPDPPKNLQLKPLKNSRQVEVSWEYPDTWSTPHSYFSLTFCVQVQGKSKREKKDRVFTDKTSATVICRKNASISVRAQDRYYSSSWSEWASVPCSGGGGSGGGSGGGGSRNLPVATPDPGMFPCLHHSQNLLRAVSNMLQKARQTLEFYPCTSEEIDHEDITKDKTSTVEACLPLELTKNESCLNSRETSFITNGSCLASRKTSFMMALCLSSIYEDLKMYQVEFKTMNAKLLMDPKRQIFLDQNMLAVIDELMQALNFNSETVPQKSSLEEPDFYKTKIKLCILLHAFRIRAVTIDRVMSYLNASGGGGSGGGDKTHTCPPCPAPEDEGGPSVFLFPPKPKDTLMISRTPEVTCVVVDVSHEDPEVKFNWYVDGVEVHNAKTKPREEQYNSTYRVVSVLTVLHQDWLNGKEYKCKVSNKALPAPIEKTISKAKGQPREPQVYVYPPSREEMTKNQVSLTCLVKGFYPSDIAVEWESNGQPENNYKTTPPVLDEDGSFALVSKLTVDKSRWQQGNVFSCSVMHEALHNHYTQKSLSLSPGK
chain 2: FTVTVPKDLYVVEYGSNMTIECKFPVEKQLDLAALQVYWMMEDKNIIQFVHGEEDLKVQHSSYRQRARLLKDQLSLGNAALQITDVKLQDAGVYTCLIAYKGADYKRITVKVNAPYNKINQRILVVDPVTSEHELTCQAEGYPKAEVIWTSSDHQVLSGKTTTTNSKREEKLFNVTSTLRINTTTNEIFYCTFRRLDPEENHTAELVIPELPLAHPPNERGGGSGAPTSSSTKKTQLQLEHLRLDLEMILNGINNYKNPKLTDMLTFEFYMPKKATELKHLQCLERELKPLEEVLNLAQSKNFHLRPRDLISNINVIVLELKGSETTFMCEYADETATIVEFLNRWITFCQSIISTLTGGGGSGGGDKTHTCPPCPAPEKKGGPSVFLFPPKPKDTLMISRTPEVTCVVVDVSHEDPEVKFNWYVDGVEVHNAKTKPREEQYNSTYRVVSVLTVLHQDWLNGKEYKCKVSNKALPAPIEKTISKAKGQPREPQVYVLPPSREEMTKNQVSLLCLVKGFYPSDIAVEWESNGQPENRYMTWPPVLDSDGSFFLYSKLTVDKSRWQQGNVFSCSVMHEALHNHYTQKSLSLSPGK
B5: IL-2(R38D/K43E/E61R/Q126T)/PD-L1(mut2)-Fc/IL-12(E59A/F60A) (Fc fusion)
chain 1: FTVTVPKDLYVVEYGSNMTIECKFPVEKQLDLAALQVYWMMEDKNIIQFVHGEEDLKVQHSSYRQRARLLKDQLSLGNAALQITDVKLQDAGVYTCLIAYKGADYKRITVKVNAPYNKINQRILVVDPVTSEHELTCQAEGYPKAEVIWTSSDHQVLSGKTTTTNSKREEKLFNVTSTLRINTTTNEIFYCTFRRLDPEENHTAELVIPELPLAHPPNERGGGGSGGGDKTHTCPPCPAPEDEGGPSVFLFPPKPKDTLMISRTPEVTCVVVDVSHEDPEVKFNWYVDGVEVHNAKTKPREEQYNSTYRVVSVLTVLHQDWLNGKEYKCKVSNKALPAPIEKTISKAKGQPREPQVYVYPPSREEMTKNQVSLTCLVKGFYPSDIAVEWESNGQPENNYKTTPPVLDEDGSFALVSKLTVDKSRWQQGNVFSCSVMHEALHNHYTQKSLSLSPGKGGGGSGGGIWELKKDVYVVELDWYPDAPGEMVVLTCDTPEEDGITWTLDQSSEVLGSGKTLTIQVKAAGDAGQYTCHKGGEVLSHSLLLLHKKEDGIWSTDILKDQKEPKNKTFLRCEAKNYSGRFTCWWLTTISTDLTFSVKSSRGSSDPQGVTCGAATLSAERVRGDNKEYEYSVECQEDSACPAAEESLPIEVMVDAVHKLKYENYTSSFFIRDIIKPDPPKNLQLKPLKNSRQVEVSWEYPDTWSTPHSYFSLTFCVQVQGKSKREKKDRVFTDKTSATVICRKNASISVRAQDRYYSSSWSEWASVPCSGGGGSGGGSGGGGSRNLPVATPDPGMFPCLHHSQNLLRAVSNMLQKARQTLEFYPCTSEEIDHEDITKDKTSTVEACLPLELTKNESCLNSRETSFITNGSCLASRKTSFMMALCLSSIYEDLKMYQVEFKTMNAKLLMDPKRQIFLDQNMLAVIDELMQALNFNSETVPQKSSLEEPDFYKTKIKLCILLHAFRIRAVTIDRVMSYLNAS
chain 2: B4 chain 2 with R243L, E247Q, Q351T
B6: IL-2(R38D/K43E/E61R/Q126T)/IL-12(E59A/F60A)/PD-L1(mut2)-Fc (Fc fusion)
chain 1: B4 chain 1
chain 2: B4 chain 2 with R243L, E247Q, Q351T
B7: IL-2(L18R/Q22E/R38D/K43E/E61R)/PD-L1(mut2)-Fc/IL-12(E59A/F60A) (Fc fusion)
chain 1: B5 chain 1
chain 2: B4 chain 2

What follows are binders tested against T2, CD8 on CD8+ T cells (human, UniProt P01732 22-235) (assay: FACS on CD8+ T cells).
T2 construct: whole, on cells
T2 sequence (P01732 22-235): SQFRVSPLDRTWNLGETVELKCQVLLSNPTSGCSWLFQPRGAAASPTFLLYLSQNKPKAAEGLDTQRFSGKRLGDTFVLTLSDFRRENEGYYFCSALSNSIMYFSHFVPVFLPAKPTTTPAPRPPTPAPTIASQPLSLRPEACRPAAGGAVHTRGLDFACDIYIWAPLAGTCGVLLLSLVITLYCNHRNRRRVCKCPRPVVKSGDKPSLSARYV

B1: no binding.
B2: no binding.
B3: no binding.

What follows are binders tested against human PD-1 overexpressed on HEK-Blue reporter cells (human, UniProt Q15116 25-288) (assay: cell-based or functional assay).
Sequence of human PD-1 overexpressed on HEK-Blue reporter cells (Q15116 25-288): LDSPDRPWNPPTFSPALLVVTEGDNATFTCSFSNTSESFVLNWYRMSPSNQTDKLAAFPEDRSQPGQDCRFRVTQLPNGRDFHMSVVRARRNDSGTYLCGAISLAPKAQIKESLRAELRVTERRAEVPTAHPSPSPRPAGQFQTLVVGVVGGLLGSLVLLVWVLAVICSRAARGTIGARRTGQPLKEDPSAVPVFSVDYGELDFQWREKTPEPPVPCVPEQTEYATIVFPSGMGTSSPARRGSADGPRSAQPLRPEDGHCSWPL

Going from B4 to B5, the “IL-2 signal transduction, % of rIL-2, HEK-IL-2-PD-1 cells” value falls from 35% to 31%.

First: B6
Second: B7
The “IL-2 signal transduction, % of rIL-2, HEK-IL-2-PD-1 cells” value of the first is lower: 20% for the first, 32% for the second.

Compared with B4, B5 is higher in “IL-12 signal transduction, % of rIL-12, HEK-IL-12-PD-1 cells” value: 19% for the first, 30% for the second.

Going from B6 to B7, the “IL-12 signal transduction, % of rIL-12, HEK-IL-12-PD-1 cells” value rises from 25% to 27%.

Each binder was assayed against T1, human IL-2 receptor (assay: cell-based or functional assay).

Going from B4 to B5, the “IL-2 signal transduction, % of rIL-2, HEK-IL-2 cells” value falls from 4% to 3%.

Compared with B6, B7 is higher in “IL-2 signal transduction, % of rIL-2, HEK-IL-2 cells” value: 2% for the first, 3% for the second.

The binders below were run against T3, human IL-12 receptor complex (human, UniProt P42701 24-662; Q99665 24-862) (assay: cell-based or functional assay).
T3 sequence (Q99665 24-862, chain 2 of 2, other chains not shown): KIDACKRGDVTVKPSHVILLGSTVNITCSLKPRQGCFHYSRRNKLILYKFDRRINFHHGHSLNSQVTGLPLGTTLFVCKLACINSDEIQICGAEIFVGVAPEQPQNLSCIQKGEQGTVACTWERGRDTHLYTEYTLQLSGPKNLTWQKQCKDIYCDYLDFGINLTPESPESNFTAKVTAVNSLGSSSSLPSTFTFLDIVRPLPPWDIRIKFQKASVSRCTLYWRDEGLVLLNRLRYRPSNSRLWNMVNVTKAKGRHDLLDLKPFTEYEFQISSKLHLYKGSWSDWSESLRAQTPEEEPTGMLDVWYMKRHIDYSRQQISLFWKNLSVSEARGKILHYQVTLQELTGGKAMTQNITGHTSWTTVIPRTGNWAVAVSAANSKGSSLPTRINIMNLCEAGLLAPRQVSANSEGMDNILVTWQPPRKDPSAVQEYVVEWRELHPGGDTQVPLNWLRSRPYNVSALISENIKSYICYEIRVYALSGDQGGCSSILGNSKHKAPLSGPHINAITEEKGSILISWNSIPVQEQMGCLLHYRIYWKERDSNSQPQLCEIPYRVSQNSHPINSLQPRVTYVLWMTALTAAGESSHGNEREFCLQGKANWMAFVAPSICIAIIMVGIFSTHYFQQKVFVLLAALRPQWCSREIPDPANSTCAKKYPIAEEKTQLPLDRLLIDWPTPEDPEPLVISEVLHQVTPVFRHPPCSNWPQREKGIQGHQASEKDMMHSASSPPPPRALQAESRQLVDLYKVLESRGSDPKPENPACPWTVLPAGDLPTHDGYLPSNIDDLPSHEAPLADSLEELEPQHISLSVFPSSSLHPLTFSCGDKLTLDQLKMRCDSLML

Going from B4 to B5, the “IL-12 signal transduction, % of rIL-12, HEK-IL-12 cells” value rises from less than 0.2% to 1%.

Compared with B6, B7 is higher in “IL-12 signal transduction, % of rIL-12, HEK-IL-12 cells” value: less than 0.2% for the first, 2% for the second.

Target: T3, human IL-12 receptor complex
Test: cell-based or functional assay
Remark: another data set of the same source

Going from B1 to B2, the “IFN-γ release, % of rIL-12, activated CD8+ T cells” value falls from 25% to 0%.

For B3, the “IFN-γ release, % of rIL-12, activated CD8+ T cells” value was 1.1%.
